Results from IntAct's records for PubMed 29039417.

B1: BBSome complex member BBS4 (Homo sapiens), Q96RK4 (parent)
chain: MAEERVATRTQFPVSTESQKPRQKKAPEFPILEKQNWLIHLHYIRKDYEACKAVIKEQLQETQGLCEYAIYVQALIFRLEGNIQESLELFQTCAVLSPQSADNLKQVARSLFLLGKHKAAIEVYNEAAKLNQKDWEISHNLGVCYIYLKQFNKAQDQLHNALNLNRHDLTYIMLGKIHLLEGDLDKAIEVYKKAVEFSPENTELLTTLGLLYLQLGIYQKAFEHLGNALTYDPTNYKAILAAGSMMQTHGDFDVALTKYRVVACAVPESPPLWNNIGMCFFGKKKYVAAISCLKRANYLAPFDWKILYNLGLVHLTMQQYASAFHFLSAAINFQPKMGELYMLLAVALTNLEDIENAKRAYAEAVHLDKCNPLVNLNYAVLLYNQGEKKNALAQYQEMEKKVSLLKDNSSLEFDSEMVEMAQKLGAALQVGEALVWTKPVKDPKSKHQTTSTSKPASFQQPLGSNQALGQAMSSAAAYRTLPSGAGGTSQFTKPPSLPLEPEPAVESSPTETSEQIREK
partner: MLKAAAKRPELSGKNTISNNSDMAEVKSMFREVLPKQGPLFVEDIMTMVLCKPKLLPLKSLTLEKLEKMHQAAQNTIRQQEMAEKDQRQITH

Variants of: B1
Settings: with bbip1_human BBIP1, A8MTZ0

effect of a mutation on the interaction | Variant
with no effect | V402A
with no effect | E399K
with no effect | S415E
with no effect | S415K
with no effect | K446A
with no effect | Q394K
with no effect | S403A
with no effect | S403E
with no effect | S403K
with no effect | S410K
with no effect | S410E
with no effect | K401A
with no effect | V418A
with no effect | V418E
with no effect | A421K
with no effect | A421E
with no effect | E387A
with no effect | L428A
with no effect | D407E
with no effect | D407K
with no effect | V435A

effect of a mutation on the interaction | Variant
with no effect | V435K
with no effect | L434K
with no effect | K438A
with no effect | Q396K
disrupting interaction strength | A391V
with no effect | A391E
with no effect | T437E
with no effect | T437K
with no effect | D442A
with no effect | D442K
with no effect | H447A
with no effect | E416A
with no effect | K406A
with no effect | P443K
with no effect | S409A
with no effect | S409K
disrupting interaction strength | L424S
with no effect | L424K
disrupting interaction strength | L424A
with no effect | L424E
with no effect | M398A

effect of a mutation on the interaction | Variant
with no effect | K389A
with no effect | K388A
with no effect | Q385A
with no effect | Q385K
with no effect | A433K
disrupting interaction strength | N384Y
with no effect | W436E
with no effect | E397K
with no effect | L411K
with no effect | K400E
with no effect | K400A
with no effect | S445E
with no effect | S445K
with no effect | G425E
with no effect | V430K
with no effect | Q422A
with no effect | Q422K
with no effect | L405K
with no effect | L405A
with no effect | F413E
with no effect | F413A

effect of a mutation on the interaction | Variant
with no effect | N408E
with no effect | E412A
with no effect | E412K
with no effect | Q429A
with no effect | Q429K
with no effect | N390K
with no effect | A427K
with no effect | A427E
with no effect | M417E
with no effect | M417A
with no effect | V440A
with no effect | V440E
with no effect | L404E
with no effect | L404A
with no effect | M420E
with no effect | M420A
with no effect | M420K
with no effect | A426K

The next lines start with the variant.

Variant | effect of a mutation on the interaction
V402K | with no effect
V402E | with no effect
E399A | with no effect
S415A | with no effect
K446E | with no effect
D414K | with no effect
D414A | with no effect
D414E | with no effect
E419K | with no effect
E419A | with no effect
Q394A | with no effect
Q394R | disrupting interaction strength
Q394L | disrupting interaction strength
Q394E | with no effect
Y395E | with no effect
Y395H | disrupting interaction strength
Y395A | with no effect
Y395K | with no effect
G431K | with no effect
G431A | with no effect
G431E | with no effect
P439E | with no effect
P439A | with no effect
P439K | with no effect
S410A | with no effect

Variant | effect of a mutation on the interaction
K401V | disrupting interaction strength
K401E | disrupting interaction strength
V418K | with no effect
A421V | disrupting interaction strength
E387G | disrupting interaction strength
E387K | with no effect
L428K | with no effect
L428P | disrupting interaction strength
L428E | with no effect
D407A | with no effect
V435E | with no effect
L434A | with no effect
L434E | with no effect
K438E | with no effect
Q396E | with no effect
Q396A | with no effect
A391K | with no effect
A391T | disrupting interaction strength
T437A | with no effect
G386E | with no effect
G386K | with no effect
G386A | with no effect
D442E | with no effect
H447E | with no effect
E416K | with no effect

Variant | effect of a mutation on the interaction
K406E | with no effect
K441A | with no effect
K441E | with no effect
P443A | with no effect
P443E | with no effect
S409E | with no effect
M398K | with no effect
M398E | with no effect
K389E | with no effect
K388E | with no effect
Q385E | with no effect
Y383K | with no effect
A433E | with no effect
N384K | with no effect
N384E | with no effect
N384A | with no effect
W436A | with no effect
W436K | with no effect
E397A | with no effect
L411E | with no effect
L411A | with no effect
L392P | disrupting interaction strength
L392E | with no effect
L392K | with no effect
L392A | with no effect

Variant | effect of a mutation on the interaction
S445A | with no effect
G425K | with no effect
G425A | with no effect
V430E | with no effect
V430A | with no effect
Q422E | with no effect
L405E | with no effect
F413K | with no effect
N408A | with no effect
N408K | with no effect
Q429E | with no effect
N390E | with no effect
N390A | with no effect
N390L | disrupting interaction strength
E432K | with no effect
E432A | with no effect
K423A | with no effect
K423E | with no effect
M417K | with no effect
V440K | with no effect
L404K | with no effect
K444E | with no effect
K444A | with no effect
A426E | with no effect
